According to patent US9603922B2, “Modulation of NKT cell activity with antigen-loaded CD1d molecules” (VACCINEX, INC., priority 2007, dated 2017):

B1: αGalCer/sCD1d: soluble monomeric mouse β2m-CD1d, His-tagged, loaded with αGalCer (protein)
chain: IQKTPQIQVYSRHPPENGKPNILNCYVTQFHPPHIEIQMLKNGKKIPKVEMSDMSFSKDWSFYILAHTEFTPTETDTYACRVKHASMAEPKTVYWDRDMGGGGSGGSGSGGGSEAQQKNYTFRCLQMSSFANRSWSRTDSVVWLGDLQTHRWSNDSATISFTKPWSQGKLSNQQWEKLQHMFQVYRVSFTRDIQELVKMMSPKEDYPIEIQLSAGCEMYPGNASESFLHVAFQGKYVVRFWGTSWQTVPGAPSWLDLPIKVLNADQGTSATVQMLLNDTCPLFVRGLLEAGKSDLEKQEKPVAWLSSVPSSADGHRQLVCHVSGFYPKPVWVMWMRGDQEQQGTHRGDFLPNADETWYLQATLDVEAGEEAGLACRVKHSSLGGQDIILYWSSGSGGHHHHHH

Tests used:
[1] = tested on: splenocytes, CD3+ T cells; experiment: Conventional T cells (CD3+) in splenocyte cultures of treated mice; type: cell-based, mouse; settings: for Conventional T cell population of CD3+ cells, in words: in vitro stimulation of splenocyte cultures; for Percentage of CD3+ cells of total spleen cells: in vitro stimulation, 7% without stimulation
Text: (§1) Cells were stained with anti NK1.1-PE and anti CD3-FITC and analysed by flow cytometry. NK cells are reported as NK1.1 positive/CD3 negative population. b c Induction of DC maturation and T cell proliferation by αGalCer/sCD1d activated NKT cells in vivo. Splenocytes were isolated after five treatments i.v. with either PBS (control), αGalCer, or αGalCer/sCD1d and cultured for 4 days with GM-CSF and then 3 more days with either PBS (control, white bars), αGalCer (grey bars), or αGalCer/sCD1d (sCD1d, black bars). Cells were then stained with anti CD11c-FITC and biotinylated anti CD40 and Streptavidin-PE to detect double positive mature DCs (c), or with anti NK1.1-PE and anti CD3-FITC to detect CD3 single positive T cells (d) by flow cytometry.
In absence of a specific antigen: Several reports have described the capacity of iNKT cells to transactivate NK, DC and T cells upon activation with free αGalCer or αGalCer-pulsed dendritic cells (Nieda, M., et al. Blood 103:383-389 (2004); Hermans, I. F., et al. J Immunol 171:5140-5147 (2003); Smyth, M. J., et al. J Exp Med 201:1973-1985 (2005)). […] Regarding NK cells, their frequency indeed increased after a single injection of free αGalCer or of αGalCer/sCD1d with or without anti HER2, as shown by the increase of the NK1.1^+ CD3^− cell population (FIG. 7a). Markers for DC maturation were also analyzed after 5 days in vitro culture of splenocytes isolated at the end of a systemic treatment, as described in Example 1. […] From 7% of total spleen cells without stimulation, percentage of CD3^+ cells increased to 17, 27 and 30%, respectively in naïve, αGalCer and αGalCer/sCD1d treated mice.

[2] = tested on: liver and spleen iNKT cells; experiment: Intracellular cytokine staining of liver and spleen NKT cells after repeated i.v. injections; design: species or system mouse; settings: after 5 to 6 i.v. injections every three days; ex vivo and in vitro rechallenge
Method: FIG. 2: a Sustained IFNγ production by liver and spleen iNKT cells after several injections of CD1d/anti-HER2 fusion. Liver and spleen lymphocytes were isolated 20 minutes after the sixth injection of either PBS (control, white bar), αGalCer 0.4 μg (grey bar), or αGalCer/CD1d-anti-HER2 fusion protein 40 μg (black bar) and cultured for 1 hour in presence of GOLGI PLUG™ reagent. NKT cells were then stained with anti NK1.1-PE and anti CD3-FITC antibodies, fixed and stained for intracellular IFNγ with anti IFNγ-APC. […] Liver lymphocytes were isolated after 5 injections i.v. of either PBS (Control), αGalCer, αGalCer/CD1d-anti-HER2 fusion protein (Fusion) or αGalCer/sCD1d (sCD1d) and stimulated in vitro for 6 hours in presence of GOLGI PLUG™ as indicated. […]
Isolation of liver, lung and spleen lymphocytes. […] After two washings, cells were either re-challenged or directly analyzed by fluorescence cytometry. […]
Sustained production of IFNγ after repeated i.v. injections: cytokine production was tested by IntraCellular Cytokine Staining (ICCS). […] After fixation and permeabilization with CYTOFIX/CYTOPERM™ (BD), intracellular IFNγ was detected with an APC-labeled anti-IFNγ monoclonal antibody. Cells were analyzed by flow cytometry on a FACS Calibur ([…]™ Software; BD). […]

liver NK cells = experiment: Transactivation of NK cells: liver NK1.1+ CD3- cells after single injection; type: in vivo, mouse; settings: 20 hours after single i.p. injection
Text: as §1
(§2) In absence of a specific antigen: Several reports have described the capacity of iNKT cells to transactivate NK, DC and T cells upon activation with free αGalCer or αGalCer-pulsed dendritic cells (Nieda, M., et al. Blood 103:383-389 (2004); Hermans, I. F., et al. J Immunol 171:5140-5147 (2003); Smyth, M. J., et al. J Exp Med 201:1973-1985 (2005)). […] Markers for DC maturation were also analyzed after 5 days in vitro culture of splenocytes isolated at the end of a systemic treatment, as described in Example 1. […]

B16 wild type cells = experiment: Precoating experiment, lung metastases of B16 wild type cells; type: in vivo, mouse; settings: cells pre-incubated with agent, injected i.v. into naïve mice
Method: FIG. 5: Precoating experiment.
Quantification of lung metastasis. Metastatic nodule surface area was measured on 2560×1920 pixels photographs of the whole organs, taken on an Zeiss STEMI SV11 dissection microscope (Carl Zeiss, Jena, Germany) equipped with a PROGRES-C10plus Color Camera (Jenoptik, Jena, Germany). Each image was analyzed with the ImageJ program (rsb.info.nih.gov/ij/) using a k-means clustering algorithm (plugin available on ij-plugins.sourceforge.net). Images were segmented into 9 segments cluster tolerance 1×10−4, randomization seed: 48) and the appropriate segments were selected based on the color of the metastasis reaching the surface of the organ. The area of the sum of selected color segments was expressed as percentage of the area occupied by the lungs. Both sides of the lung were analyzed. This method takes into account both the number and the size of the tumor nodules. Since nodules are often heterogenous the percentage of metastatic lung surface area is a more sensitive measure of tumor growth than just counting tumor nodules.
This affect may be caused by a transient association of the αGalCer with the tumor cell surface, or by transient uptake of the free αGalCer.

[3] = tested on: splenocytes, CD11c+ CD40+ DC; experiment: DC maturation (CD11c+ CD40+) in splenocyte cultures of treated mice; type: cell-based, mouse; settings: in vitro stimulation of splenocytes isolated after systemic treatment
Text: as §1, §2

Molecule | Conventional T cell population of CD3+ cells, in words [1] | IFNγ production by iNKT cells [2] | NK cell frequency (NK1.1+ CD3- population) (liver NK cells) | Lung metastases of precoated B16 wild type cells (B16 wild type cells) | Percentage of CD11c+ CD40+ double positive cells [3] | Percentage of CD3+ cells of total spleen cells ([1]; splenocytes of naïve mice) | Percentage of CD3+ cells of total spleen cells ([1]; splenocytes of αGalCer treated mice) | Percentage of CD3+ cells of total spleen cells ([1]; splenocytes of αGalCer/sCD1d treated mice)
CCCCCCCCCCCCCCCCCCCCCCCCCC(=O)N[C@@H](CO[C@H]1O[C@H](CO)[C@H](O)[C@H](O)[C@H]1O)[C@H](O)[C@H](O)CCCCCCCCCCCCCC [αGalCer, α-galactosylceramide, reference compound] | no significant effect | only active in naïve (PBS control) mice and has no more effect in αGalCer-treated mice | increased | completely inhibited tumor development | had no effect in any of the mice |  |  | 
B1 | significantly increased | stimulate iNKT to produce IFNγ following repeated in vivo stimulation with the same material | increased | not able to block tumor growth | increased | 17% | 27% | 30%
